Residue numbers refer to the chain shown, from its start. In names and notes the source's numbering stands. Values belong to the binder of their own block, whether it stands above or below them.
Tests used:
Assay in all cases: cross-linking; BMOE (1 mM, 45 s) on hexamers with reporter cysteines, 0.5 µM in ATPase buffer; without or with Nse5/6 (0.625 µM), 2 mM ATP, plasmid DNA or 40 bp DNA; SDS-PAGE, Coomassie
Conditions in all cases: both partners purified
Smc6-3C-Twin-Strep = biological target: T1, Smc6-3C-Twin-Strep (S. cerevisiae, UniProt Q12749 1-1114)
T1 construct: Smc6, S. cerevisiae; stood in the assays as a subunit of the hexamer or octamer; also called Smc6-Twin-Strep; Smc6-3C-TS; source: E. coli (DE3) Rosetta, co-expressed with the other subunits of the hexamer, purified as part of the complex; not shown: Twin-Strep (after a 3C site), C-terminal, kept
T1 sequence (looked up): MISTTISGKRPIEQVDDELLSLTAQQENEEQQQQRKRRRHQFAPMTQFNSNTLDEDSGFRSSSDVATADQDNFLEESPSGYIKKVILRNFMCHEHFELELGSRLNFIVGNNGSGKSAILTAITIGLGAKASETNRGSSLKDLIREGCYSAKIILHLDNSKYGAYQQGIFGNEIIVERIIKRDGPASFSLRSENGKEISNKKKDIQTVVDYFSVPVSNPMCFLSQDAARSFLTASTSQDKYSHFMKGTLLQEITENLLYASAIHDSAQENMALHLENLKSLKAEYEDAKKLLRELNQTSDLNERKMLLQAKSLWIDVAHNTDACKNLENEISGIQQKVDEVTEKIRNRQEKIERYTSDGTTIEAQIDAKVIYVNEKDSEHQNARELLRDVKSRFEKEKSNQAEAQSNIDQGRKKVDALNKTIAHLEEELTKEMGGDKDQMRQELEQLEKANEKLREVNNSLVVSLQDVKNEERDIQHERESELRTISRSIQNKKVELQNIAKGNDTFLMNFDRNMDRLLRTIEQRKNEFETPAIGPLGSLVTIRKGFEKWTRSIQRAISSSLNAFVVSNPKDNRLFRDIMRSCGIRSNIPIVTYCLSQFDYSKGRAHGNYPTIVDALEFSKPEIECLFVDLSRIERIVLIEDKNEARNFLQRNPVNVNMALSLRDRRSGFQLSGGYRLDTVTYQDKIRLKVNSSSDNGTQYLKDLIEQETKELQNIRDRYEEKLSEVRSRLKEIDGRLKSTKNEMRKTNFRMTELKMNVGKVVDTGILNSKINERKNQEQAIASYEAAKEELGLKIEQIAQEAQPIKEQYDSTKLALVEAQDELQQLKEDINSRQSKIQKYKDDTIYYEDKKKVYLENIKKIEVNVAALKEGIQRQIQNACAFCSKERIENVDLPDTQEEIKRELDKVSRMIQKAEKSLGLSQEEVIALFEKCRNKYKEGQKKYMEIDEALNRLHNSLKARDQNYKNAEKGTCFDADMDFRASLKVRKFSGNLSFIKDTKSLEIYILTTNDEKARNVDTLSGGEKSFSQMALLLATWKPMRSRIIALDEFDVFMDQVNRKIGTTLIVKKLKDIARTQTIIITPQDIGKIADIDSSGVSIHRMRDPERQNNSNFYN

Smc6(N643C) = biological target: T2, Smc6(N643C) (S. cerevisiae, UniProt Q12749 1-1114, N643C)
T2 construct: Smc6, S. cerevisiae; subunit of the Hinge-Cys (south) hexamer; also called Hinge-Cys south, Smc6; source: E. coli (DE3) Rosetta, purified as part of the hexamer
T2 sequence (looked up): T1 sequence (looked up) with N643C

Smc6(N572C) = biological target: T3, Smc6(N572C) (S. cerevisiae, UniProt Q12749 1-1114, N572C)
T3 construct: Smc6, S. cerevisiae; subunit of the Hinge-Cys (north) hexamer; also called Hinge-Cys north, Smc6; source: E. coli (DE3) Rosetta, purified as part of the hexamer
T3 sequence (looked up): T1 sequence (looked up) with N572C

- binding result (Smc6-3C-Twin-Strep): binds
B1: Smc5(N975C) (natural protein, S. cerevisiae, UniProt Q08204 1-1093, looked up)
chain: MTSLIDLGRYVERTHHGEDTEPRSKRVKIAKPDLSSFQPGSIIKIRLQDFVTYTLTEFNLSPSLNMIIGPNGSGKSTFVCAVCLGLAGKPEYIGRSKKVEDFIKNGQDVSKIEITLKNSPNVTDIEYIDARDETIKITRIITRSKRRSDYLINDYQVSESVVKTLVAQLNIQLDNLCQFLSQERVEEFARLKSVKLLVETIRSIDASLLDVLDELRELQGNEQSLQKDLDFKKAKIVHLRQESDKLRKSVESLRDFQNKKGEIELHSQLLPYVKVKDHKEKLNIYKEEYERAKANLRAILKDKKPFANTKKTLENQVEELTEKCSLKTDEFLKAKEKINEIFEKLNTIRDEVIKKKNQNEYYRGRTKKLQATIISTKEDFLRSQEILAQTHLPEKSVFEDIDIKRKEIINKEGEIRDLISEIDAKANAINHEMRSIQRQAESKTKSLTTTDKIGILNQDQDLKEVRDAVLMVREHPEMKDKILEPPIMTVSAINAQFAAYLAQCVDYNTSKALTVVDSDSYKLFANPILDKFKVNLRELSSADTTPPVPAETVRDLGFEGYLSDFITGDKRVMKMLCQTSKIHTIPVSRRELTPAQIKKLITPRPNGKILFKRIIHGNRLVDIKQSAYGSKQVFPTDVSIKQTNFYQGSIMSNEQKIRIENEIINLKNEYNDRKSTLDALSNQKSGYRHELSELASKNDDINREAHQLNEIRKKYTMRKSTIETLREKLDQLKREARKDVSQKIKDIDDQIQQLLLKQRHLLSKMASSMKSLKNCQKELISTQILQFEAQNMDVSMNDVIGFFNEREADLKSQYEDKKKFVKEMRDTPEFQSWMREIRSYDQDTKEKLNKVAEKYEEEGNFNLSFVQDVLDKLESEIAMVNHDESAVTILDQVTAELRELEHTVPQQSKDLETIKAKLKEDHAVLEPKLDDIVSKISARFARLFNNVGSAGAVRLEKPKDYAEWKIEIMVKFRDCAPLKKLDSHTQSGGERAVSTVLYMIALQEFTSAPFRVVDEINQGMDSRNERIVHKAMVENACAENTSQYFLITPKLLTGLHYHEKMRIHCVMAGSWIPNPSEDPKMIHFGETSNYSFD
notes: Smc5, S. cerevisiae; pairs with the natural cysteines C92 and C147 of Smc6; also called E-Cys, Smc5; source: E. coli (DE3) Rosetta, purified as part of the hexamer

- binding result (Smc6(N643C)): binds
B2: Smc5(N526C) (natural protein, S. cerevisiae, UniProt Q08204 1-1093, looked up)
chain: B1 chain with N526C, C975N
notes: Smc5, S. cerevisiae; subunit of the Hinge-Cys (south) hexamer; also called Hinge-Cys south, Smc5; source: E. coli (DE3) Rosetta, purified as part of the hexamer

- binding result (Smc6(N572C)): binds
B3: Smc5(V638C) (natural protein, S. cerevisiae, UniProt Q08204 1-1093, looked up)
chain: B1 chain with V638C, C975N
notes: Smc5, S. cerevisiae; subunit of the Hinge-Cys (north) hexamer; also called Hinge-Cys north, Smc5; source: E. coli (DE3) Rosetta, purified as part of the hexamer
